Data published in paper PMC7943601, “Substrate-engaged type III secretion system structures reveal gating mechanism for unfolded protein translocation” (Nature Communications, 2021).

B1: PrgI (natural protein)
chain: MATPWSGYLDDVSAKFDTGVDNLQTQVTEALDKLAAKPSDPALLAAYQSKLSEYNLYRNAQSNTVKVFKDIDAAIIQNFR
notes: PrgI, needle filament protein of the S. enterica sv; Typhimurium injectisome; Helical filament; 72 subunits were modelled in the substrate-trapped map; also called PrgI_(1-72); needle filament protein
B2: InvG (natural protein)
chain: SEKIPVTGSGFVAKDDSLRTFFDAMALQLKEPVIVSKMAARKKITGNFEFHDPNALLEKLSLQLGLIWYFDGQAIYIYDASEMRNAVVSLRNVSLNEFNNFLKRSGLYNKNYPLRGDNRKGTFYVSGPPVYVDMVVNAATMMDKQNDGIELGRQKIGVMRLNNTFVGDRTYNLRDQKMVIPGIATAIERLLQGEEQPLGNIVSSEPPAMPAFSANGEKGKAANYAGGMSLQEALKQNAAAGNIKIVAYPDTNSLLVKGTAEQVHFIEMLVKALDVAKRHVELSLWIVDLNKSDLERLGTSWSGSITIGDKLGVSLNQSSISTLDGSRFIAAVNALEEKKQATVVSRPVLLTQENVPAIFDNNRTFYTKLIGERNVALEHVTYGTMIRVLPRFSADGQIEMSLDIEDGNDKTPQSDTTTSVDALPEVGRTLISTIARVPHGKSLLVGGYTRDANTDTVQSIPFLGKLPLIGSLFRYSSKNKSNVVRVFMIEPKEIVDPLTPDASESVNNILKQSGAWSGDDKLQKWVRVYLDRGQEAIK
notes: InvG, basal body ring protein (outer rings) of the S. enterica sv; Typhimurium injectisome; modelled as G34-I173 (lower OR) and E174-G557 (upper OR); Printed as InvG_(1-15/16); the upper outer ring was built in a C15-symmetrized map; also called InvG_(1-15/16); outer rings
B3: PrgH (natural protein)
chain: METSKEKTITSPGPYIVRLLNSSLNGCEFPLLTGRTLFVVGQSDALTASGQLPDIPADSFFIPLDHGGVNFEIQVDTDATEIILHELKEGNSESRSVQLNTPIQVGELLILIRPESEPWVPEQPEKLETSAKKNEPRFKNGIVAALAGFFILGIGTVGTLWILNSPQRQAAELDSLLGQEKERFQVLPGRDKMLYVAAQNERDTLWARQVLARGDYDKNARVINENEENKRISIWLDTYYPQLAYYRIHFDEPRKPVFWLSRQRNTMSKKELEVLSQKLRALMPYADSVNITLMDDVTAAGQAEAGLKQQALPYSRRNHKGGVTFVIQGALDDVEILRARQFVDSYYRTWGGRYVQFAIELKDDWLKGRSFQYGAEGYIKMSPGHWYFPSPL
notes: PrgH, basal body ring protein of the S. enterica sv; Typhimurium injectisome; also called PrgH_(1-24); copies: 24
B4: PrgK (natural protein)
chain: CKDKDLLKGLDQEQANEVIAVLQMHNIEANKIDSGKLGYSITVAEPDFTAAVYWIKTYQLPPRPRVEIAQMFPADSLVSSPRAEKARLYSAIEQRLEQSLQTMEGVLSARVHISYDIDAGENGRPPKPVHLSALAVYERGSPLAHQISDIKRFLKNSFADVDYDNISVVLSERSDAQLQAPGTPVKRNSFATSWIVLIILLSVMSAGFGVWYYKNHYARNKKGITADDKAKSSNE
notes: PrgK, basal body ring protein of the S. enterica sv; Typhimurium injectisome; also called PrgK_(1-24); copies: 24
B5: SpaQ (natural protein)
chain: MDDLVFAGNKALYLVLILSGWPTIVATIIGLLVGLFQTVTQLQEQTLPFGIKLLGVCLCLFLLSGWYGEVLLSYGRQVIFLALAKG
notes: also called SpaQ1-4
B6: SpaR (natural protein)
chain: MFYALYFEIHHLVASAALGFARVAPIFFFLPFLNSGVLSGAPRNAIIILVALGVWPHALNEAPPFLSVAMIPLVLQEAAVGVMLGCLLSWPFWVMHALGCIIDNQRGATLSSSIDPANGIDTSEMANFLNMFAAVVYLQNGGLVTMVDVLNKSYQLCDPMNECTPSLPPLLTFINQVAQNALVLASPVVLVLLLSEVFLGLLSRFAPQMNAFAISLTVKSGIAVLIMLLYFSPVLPDNVLRLSFQATGLSSWFYERGATHVLE
notes: SpaR, export apparatus protein of the S. enterica sv; Typhimurium injectisome; One copy in the export apparatus
B7: SpaP (natural protein)
chain: MGNDISLIALLAFSTLLPFIIASGTCFVKFSIVFVMVRNALGLQQIPSNMTLNGVALLLSMFVMWPIMHDAYVYFEDEDVTFNDISSLSKHVDEGLDGYRDYLIKYSDRELVQFFENAQLKRQYGEETETVKRDKDEIEKPSIFALLPAYALSEIKSAFKIGFYLYLPFVVVDLVVSSVLLALGMMMMSPVTISTPIKLVLFVALDGWTLLSKGLILQYMDIAT
notes: SpaP, export apparatus protein of the S. enterica sv; Typhimurium injectisome; Five copies in the export apparatus (SpaP : Q : R 5 : 4 : 1); also called SpaP1-5; SpaP pentamer

Columns and labels:
Assay in all cases: cryo-EM structure
SpaP = target: B7; conditions: both partners purified
PrgJ = target: T1, PrgJ (S. enterica sv. Typhimurium (endogenous …, UniProt P41785 1-101)); conditions: both partners purified
T1 construct: PrgJ, inner rod protein of the S. enterica sv; Typhimurium injectisome; Six protomers form the inner rod; also called PrgJ1-6; inner rod protein
T1 sequence (P41785 whole entry): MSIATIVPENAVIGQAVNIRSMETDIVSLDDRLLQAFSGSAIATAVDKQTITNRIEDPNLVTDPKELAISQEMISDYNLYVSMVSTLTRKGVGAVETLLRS

InvG = target: B2; conditions: both partners purified
cryo-EM structure = target: the molecule itself
SpaR = target: B6; conditions: both partners purified

Row | Binder | binding result (PrgJ) | stoichiometry N (cryo-EM structure) | further results
1 | B1 | binds |  | binding result (SpaP): binds; binding result (InvG): binds; binding result (cryo-EM structure): binds
2 | B2 | binds |  | 
3 | B3 |  | 24 | 
4 | B4 |  | 24 | 
5 | B5 |  | 4 | binding result (SpaR): binds; binding result (SpaP): binds
6 | B6 | binds |  | 
7 | B7 | binds | 5 | binding result (SpaR): binds
